Experimental data reported in patent US20040161448.

How the values were obtained:
[1] = molecular target: T1, Soybean Kunitz Trypsin Inhibitor, P01070
T1 chain: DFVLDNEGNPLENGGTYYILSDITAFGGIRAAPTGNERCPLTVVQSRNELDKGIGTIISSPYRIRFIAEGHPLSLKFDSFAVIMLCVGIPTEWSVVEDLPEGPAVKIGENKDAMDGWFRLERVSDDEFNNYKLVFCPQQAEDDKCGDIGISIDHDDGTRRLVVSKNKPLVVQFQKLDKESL

[2] = molecular target: soybean agglutinin (SBA), P05046
[3] = molecular target: T2, soybean Bowman-Birk Inhibitor, P01055
T2 chain: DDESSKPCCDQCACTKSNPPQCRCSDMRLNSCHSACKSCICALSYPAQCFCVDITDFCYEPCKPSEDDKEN

Chain of soybean agglutinin (SBA), P05046 (P05046 33-285): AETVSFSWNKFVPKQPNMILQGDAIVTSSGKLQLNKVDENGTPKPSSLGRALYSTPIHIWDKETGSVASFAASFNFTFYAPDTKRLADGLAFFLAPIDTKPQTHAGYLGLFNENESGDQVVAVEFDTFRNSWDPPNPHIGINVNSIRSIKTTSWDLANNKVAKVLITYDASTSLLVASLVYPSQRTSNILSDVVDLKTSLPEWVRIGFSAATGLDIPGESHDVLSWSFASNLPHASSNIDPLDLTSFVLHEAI

B1: protease derived from Nocardiopsis sp. NRRL 18262 (protein)
chain: ADIIGGLAYTMGGRCSVGFAATNAAGQPGFVTAGHCGRVGTQVTIGNGRGVFEQSVFPGNDAAFVRGTSNFTLTNLVSRYNTGGYATVAGHNQAPIGSSVCRSGSTTGWHCGTIQARGQSVSYPEGTVTNMTRTTVCAEPGDSGGSYISGTQAQGVTSGGSGNCRTGGTTFYQEVTPMVNSWGVRLRT
% of anti-nutritional factor degraded [1]: 100%
% of anti-nutritional factor degraded [2]: 75%
% of anti-nutritional factor degraded [3]: 25%
